Substitutions are numbered along the chain they refer to. Names and notes keep the numbering of the source. One block for each binder: values may come before it.
Assays:
[1] = target: T1, human FcRn extracellular domain / beta2 microglobulin complex (human, UniProt P55899 24-290; P61769 21-119); experiment: ELISA, pH 6.0; FcRn/β2m complex captured by anti-β2m antibody, antibody titrated, anti-human kappa HRP detection
T1 construct: range 24-290;range 21-119; Both chains were co-expressed in HEK293 6E cells and purified on IgG-Sepharose; In the ELISA the complex was captured by a coated anti-β2 microglobulin antibody at pH 6.0; also called FcRn/β2 microglobulin complex
Description: (§1) Maxisorp 96-well plates (Thermo Fisher Scientific, Rochester, N.Y.) were coated with 5 ug/ml anti-β₂ microglobulin monoclonal antibody. Wells were then washed with PBS and treated with Superblock blocking solution (Thermo Fisher Scientific, Rockford, Ill.). Then, the FcRn/β₂ microglobulin complex was diluted to 5 ug/ml in SPBS6T (50 mM sodium phosphate buffer pH 6.0, 150 mM NaCl, 0.05% Tween-20) and added to allow for capture by the coated anti-β₂ microglobulin antibody for 60 min at room temperature. Wells were then washed by SPBS6T and then exposed to hu39D10 or its the variants in SPBS6T and incubated for 60 min at room temperature. The hu39D10/FcRn complex formed by the incubation was probed with an F(ab′)2 fragment of an anti-human kappa HRP conjugate (SourthernBiotechnology, Birmingham, Ala.; 1/5000 dilution in SPBS6T) for 30 min at room temperature. After washing with SPBS6T, 100 ul of TMB (Sigma) was loaded into each well for signal detection. […] The affinity of the IgG variants to FcRn was calculated and plotted using Prism software by GraphPad Software (La Jolla, Calif.).

[2] = target: T1, human FcRn extracellular domain / beta2 …; experiment: ELISA, pH 6.0; ratio of EC50 values against hu39D10 with native IgG4 Fc
Description: as §1

EC50 [1]: 3.8 nM
B1: hu39D10 (humanized 39D10, anti-IL-5 antibody) with native human IgG4 Fc / kappa (antibody)
heavy: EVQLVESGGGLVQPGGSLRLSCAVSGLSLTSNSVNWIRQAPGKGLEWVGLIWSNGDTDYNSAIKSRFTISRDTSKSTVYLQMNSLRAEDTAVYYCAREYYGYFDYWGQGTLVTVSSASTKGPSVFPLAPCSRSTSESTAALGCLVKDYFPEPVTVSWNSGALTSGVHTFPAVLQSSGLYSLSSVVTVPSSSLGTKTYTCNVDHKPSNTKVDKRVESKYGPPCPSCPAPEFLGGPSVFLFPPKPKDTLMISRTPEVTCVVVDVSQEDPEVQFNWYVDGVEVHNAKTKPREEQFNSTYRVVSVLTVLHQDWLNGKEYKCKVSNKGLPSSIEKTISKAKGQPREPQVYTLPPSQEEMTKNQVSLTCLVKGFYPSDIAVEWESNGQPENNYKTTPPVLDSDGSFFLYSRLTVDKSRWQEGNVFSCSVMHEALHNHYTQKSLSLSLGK
light: DIQMTQSPSSLSASVGDRVTITCLASEGISSYLAWYQQKPGKAPKLLIYGANSLQTGVPSRFSGSGSATDYTLTISSLQPEDFATYYCQQSYKFPNTFGQGTKVEVKRTVAAPSVFIFPPSDEQLKSGTASVVCLLNNFYPREAKVQWKVDNALQSGNSQESVTEQDSKDSTYSLSSTLTLSKADYEKHKVYACEVTHQGLSSPVTKSFNRGEC
notes: Full IgG4/kappa expressed in HEK293 6E cells; also called CTIL-5-10gH/-gL6; hu39D10 with unmodified Fc; not shown: human IgG4 heavy chain constant region, native (cloned from Quickclone cDNA library)

EC50 [1]: 0.81 nM | fold increase in affinity for human FcRn against hu39D10 [2]: 4.7 fold
B2: hu39D10 with the YTE mutations (M252Y, S254T, T256E) in the IgG4 Fc (antibody, name in EU numbering)
heavy: EVQLVESGGGLVQPGGSLRLSCAVSGLSLTSNSVNWIRQAPGKGLEWVGLIWSNGDTDYNSAIKSRFTISRDTSKSTVYLQMNSLRAEDTAVYYCAREYYGYFDYWGQGTLVTVSSASTKGPSVFPLAPCSRSTSESTAALGCLVKDYFPEPVTVSWNSGALTSGVHTFPAVLQSSGLYSLSSVVTVPSSSLGTKTYTCNVDHKPSNTKVDKRVESKYGPPCPSCPAPEFLGGPSVFLFPPKPKDTLYITREPEVTCVVVDVSQEDPEVQFNWYVDGVEVHNAKTKPREEQFNSTYRVVSVLTVLHQDWLNGKEYKCKVSNKGLPSSIEKTISKAKGQPREPQVYTLPPSQEEMTKNQVSLTCLVKGFYPSDIAVEWESNGQPENNYKTTPPVLDSDGSFFLYSRLTVDKSRWQEGNVFSCSVMHEALHNHYTQKSLSLSLGK
light: B1 light
notes: domain: IgG4 heavy chain constant region; Substitution positions are EU numbers, not positions on the UniProt entry; also called hu39D10 YTE variant

EC50 [1]: 0.81 nM
B3: hu39D10 with the YTE mutations and the S228P hinge mutation (YTE+S228P) in IgG4 (antibody)
heavy: B2 heavy with S224P
light: B1 light
notes: also called hu39D10 with the 4 amino acid substitutions; S228P+YTE variant

Source: patent US20130281677A1 (CEPHALON AUSTRALIA, published 2013)
